{"source": "paper PMC9241633", "test_system": "KbvR (Klebsiella pneumoniae)", "assay": "MST", "settings": "MST: constant labeled KbvR, 2-fold DNA dilution series (16 samples), 30 min incubation at room temperature, measured at 30 C, 80% excitation power, medium LED …", "data": [{"substance": "ompK36 promoter region", "values": [{"measurement": "Kd", "value": 450, "unit": "nM"}]}]}
